Where a chain is given by its changes, count along the chain named.
B1: BLW-3B4 (antibody, V domains shown)
VH: QVQLQQSGPGLVKPSQTLSLTCAISGDSVFNNNAAWSWIRQSPSRGLEWLGRTYYRSKWLYDYAVSVKSRITVNPDTSRNQFTLQLNSVTPEDTALYYCVRGYSSSFDYWGQGTLVTVSS
VL: QSALTQPASVSGSPGQSITISCTGTSRDIGTYKFVSWYQQHPDKAPKVLLYEVSKRPSGVSSRFSGSKSGNTASLTISGLQAEDQADYHCCSYAGSGTLLFGGGTKLTVL
notes: OmniRat hybridoma supernatant: human V regions on rat constant regions; also called V regions cloned as CD3B313 (CD3H218/CD3L125)
B2: BLW-2E6 (antibody, V domains shown)
VH: B1 VH with G10R, K13R, V100A
VL: B1 VL with R27S, D28N
notes: OmniRat hybridoma supernatant: human V regions on rat constant regions; also called V regions cloned as CD3B312 (CD3H219/CD3L124)
B3: BLW-2B4 (antibody, V domains shown)
VH: B1 VH
VL: B1 VL with S54N
notes: OmniRat hybridoma supernatant: human V regions on rat constant regions; also called V regions cloned as CD3B311 (CD3H218/CD3L123)
B4: BLX-1F8 (antibody, V domains shown)
VH: B1 VH with N87K, V100S
VL: B1 VL with R27S, G70D
notes: OmniRat hybridoma supernatant: human V regions on rat constant regions; also called V regions cloned as CD3B314 (CD3H220/CD3L126)
B5: C33B915 (antibody, V domains shown)
VH: EVQLVESGGGLVQPGRSLRLSCAASGFTFDDYAMHWVRQVPGEGLEWVSGISWNGGDMVYADSVKGRFTISRDNAKNSLYLQMNSLRPEDTALYYCVKDMPYFDFLTGSDYYYYGMDVWGQGTTVTVSS
VL: SYELTQPPSVSVSPGQTASITCSGDNLGNEHVCWYHQKPGQSPVLVIYQNNKRPSGIPERFSGSNSGNTATLSISGTQATDEADYYCQAWDSTTAVFGGGTKLTVL
notes: OMNIMouse-derived anti-CD33 mAb; same V regions as C33B907; also called C33H255/C33L121; C33F553
B6: C33B913 (antibody, V domains shown)
VH: EVQLLESGGGLVQPGGSLKLSCTASGFTFRSYAMSWVRQAPGKGLEWVSAINGYGDGRYYADSVKGRFTISRDNSKNTLYLQMNSLRAEDTAVYSCAKDQGFGELFFDYWGQGTLVTVSS
VL: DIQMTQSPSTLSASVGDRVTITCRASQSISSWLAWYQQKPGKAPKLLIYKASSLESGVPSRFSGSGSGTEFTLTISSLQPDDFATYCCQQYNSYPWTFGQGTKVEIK
notes: OMNIMouse-derived anti-CD33 mAb; same V regions as C33B905; also called C33H253/C33L119; C33F551
B7: C33B914 (antibody, V domains shown)
VH: QVQLVESGGGVVQPGRSLRLSCAASGFTFSYYGMHWVRQAPDKGLEWVAVIWFDGNNKYYADSVKGRFTISRDNSKNTLYLQMNSLRAEDTAVYYCARDRELLFDYWGQGTLVTVSS
VL: SYELTQPPSVSVSPGQTASITCSGDELGDMYACWYQQKPGQSPLVVIYQDSKRPSGIPERFSGSNSGNTATLTISGTQAMDEAAYYCQTWDTRIAVFGGGTNLTVL
notes: OMNIMouse-derived anti-CD33 mAb; same V regions as C33B906; also called C33H254/C33L120; C33F552
B8: C33B916 (antibody, V domains shown)
VH: B7 VH with A24T, Y31N, D42G, F53Y, D54V, N56S, N57H, R100G, E101S, L103C
VL: SYELTQPPSVSVSPGQTANISCSGVTLGYNYAYWYQQKPGQSPILVISQDTQRPSGIPERFSGSNSGNTATLTISGTQAMDEAAYYCQAWDITTVLFGGGTKLTVL
notes: OMNIMouse-derived anti-CD33 mAb; same V regions as C33B908; also called C33H256/C33L122; C33F554
B9: C33B911 (antibody, V domains shown)
VH: EVQLVESGGGLVQPGRSLRLSCAASGFTFDDYAMHWVRQAPGKGLEWVSGIGWSGGSIVYADSVKGRFKISRDNAKNSLYLQMNSLRAEDTALYYCAKDSPYGDFFDYWGQGTLVTVSS
VL: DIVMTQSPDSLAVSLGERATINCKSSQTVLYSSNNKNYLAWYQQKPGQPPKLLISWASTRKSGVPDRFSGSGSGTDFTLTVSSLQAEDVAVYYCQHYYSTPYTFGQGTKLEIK
notes: OMNIMouse-derived anti-CD33 mAb; same V regions as C33B903; also called C33H251/C33L117; C33F549

Molecular target: T1, cynomolgus CD3e/d complex on cells transiently transfected with pcDNA3.1-CD3e/d-cyn-mix (cynomolgus, UniProt Q95LI5 22-198; Q95LI8 22-171)
T1 construct: Tagged screening constructs
Test: CELISA, hybridoma supernatant
Protocol: (§1) Hybridoma supernatants from fusions BLW (with magnetic bead depletion of lymphocytes) and BLX (without magnetic bead depletion of lymphocytes) were analyzed a) by a cell-based ELISA (CELISA) on cells transiently transfected with human and cynomolgus cDNA cloned into screening vectors: pOPT-CD3e-hum-epsilon-TCE.OMT+pOPT-CD3d-hum-delta.OMT, 1:1 (pOPT-CD3e/d-hum-mix) and pcDNA3.1-CD3e-cyn-[…]+pcDNA3.1-CD3d-cyn-delta, 1:1 (pcDNA3.1-CD3e/d-cyn-mix). For CELISA negative control, non-transfected mammalian cells were incubated with hybridoma supernatants and detected with the secondary Bethyl antibody. For a CELISA transfection control, mammalian cells, transfected with the constructs described above, were detected with anti-tag antibody.

T1 sequence (Q95LI5 22-198 limits assumed, chain 1 of 2): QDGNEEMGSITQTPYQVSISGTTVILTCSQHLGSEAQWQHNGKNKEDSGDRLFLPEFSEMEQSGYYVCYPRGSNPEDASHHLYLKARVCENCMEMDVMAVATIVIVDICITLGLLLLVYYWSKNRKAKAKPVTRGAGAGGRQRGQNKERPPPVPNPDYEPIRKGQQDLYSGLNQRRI
T1 sequence (Q95LI8 22-171 limits assumed, chain 2 of 2): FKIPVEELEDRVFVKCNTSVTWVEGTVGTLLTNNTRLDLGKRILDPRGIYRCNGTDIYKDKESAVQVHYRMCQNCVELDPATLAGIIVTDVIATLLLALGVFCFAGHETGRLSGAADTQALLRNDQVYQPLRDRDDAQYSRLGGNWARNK

Point of comparison: B4, “% positive” value 47%. Against it:
- B1 — higher, 66%
- B2 — lower, 25%
- B3 — the same, 47%

Point of comparison: B4, Rfu 230 rfu. Against it:
- B1 — higher, 320 rfu
- B2 — lower, 121 rfu
- B3 — the same, 230 rfu

Molecular target: T2, human CD3e/d complex on cells transiently transfected with pOPT-CD3e/d-hum-mix (human, UniProt P07766 23-126; P04234 22-171)
T2 construct: Tagged screening constructs
Test: CELISA, hybridoma supernatant
Protocol: as §1

T2 sequence (P07766 23-126 limits assumed, chain 1 of 2): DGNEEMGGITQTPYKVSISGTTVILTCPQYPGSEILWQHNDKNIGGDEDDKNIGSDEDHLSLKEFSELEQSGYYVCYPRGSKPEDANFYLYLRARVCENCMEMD
T2 sequence (P04234 22-171 limits assumed, chain 2 of 2): as the sequence (Q95LI8 22-171 limits assumed, chain 2 of 2) above, with V5I, K15N, V20I, T32S, N33D, N34I, A64T, N74S, L83V, R141H counted along it

Point of comparison: B2, “% positive” value 34%. Against it:
- B1 — higher, 127%
- B3 — higher, 101%
- B4 — higher, 101%

Point of comparison: B2, Rfu 231 rfu. Against it:
- B1 — higher, 867 rfu
- B3 — higher, 689 rfu
- B4 — higher, 689 rfu

Molecular target: T3, Cyno CD33 full length (cynomolgus monkey)
T3 construct: also called cyCD33
Test: flow cytometry on HEK293F cells expressing cyno CD33
Protocol: (§2) The purified antibodies were assessed for binding to stably transfected HEK293F cells expressing human CD33 or cyno CD33 (generation described above) along with the parental HEK293F as negative control. Cells were harvested from tissue culture flasks using non-enzymatic dissociation buffer (Thermo Scientific). The flasks were rinsed twice with PBS and dissociation buffer was added to the flask, and the flask was incubated for 10 minutes at 37° C. until the cells became non-adherent. The cells were centrifuged at 300 g for 5 minutes and resuspended at 1.0×10⁶ cells/ml in staining buffer (Becton Dickinson; Franklin Lakes, NJ). 50,000 cells/well of each cell type was plated in 50 μl of staining buffer in round bottom plates (Becton Dickinson). […] 100 μl staining buffer was added to all wells of each plate, the plates were spun at 300 g for 5 min, the buffer was removed, 200 μl staining buffer was added to all wells of each plate, the plates were spun at 300 g for 5 min, and the buffer was removed. 50 μl of 2 μg/ml of Goat-anti-human Fc AF647 secondary antibody (Jackson Immunoresearch; West Grove, PA) was added to all wells of the plates, and the plates were incubated for 30 min at 4° C. 100 μl staining buffer was added to all wells of the plates, the plates were spun at 300 g for 5 min, and the buffer was removed. 200 μl running buffer (running buffer is Staining buffer, 1 mM EDTA, 0.1% Pluronic Acid) was added to all wells of the plates, the plates were spun at 300 g for 5 min, and the buffer was removed. 30 μl running buffer containing Sytox Green live/dead dye (ThermoFisher) was added to all wells with cells and the plates were read on an iQue IntelliCyt flow cytometer. Cells were gated on forward vs. side scatter to eliminate debris, then on singlets and then on live cells which excluded the Sytox stain. Antibody binding was assessed by the mean fluorescence intensity in the AF647 channel.
(§3) The OmniMouse panel (8 mAbs total) was generated separately and characterized further for binding to cells.

Point of comparison: B5, “MFI at 0 nM (background)” value 114 MFI. Against it:
- B6 — lower, 106 MFI
- B7 — lower, 86.8 MFI
- B8 — lower, 104 MFI
- B9 — lower, 97.9 MFI

Point of comparison: B5, “MFI at 0.6 nM” value 36200 MFI. Against it:
- B6 — lower, 35200 MFI
- B7 — lower, 22100 MFI
- B8 — lower, 22800 MFI
- B9 — lower, 1940 MFI

Point of comparison: B8, “MFI at 6 nM” value 33300 MFI. Against it:
- B5 — higher, 35700 MFI
- B6 — higher, 36900 MFI
- B7 — higher, 33400 MFI
- B9 — lower, 7730 MFI

Point of comparison: B8, “MFI at 60 nM” value 41000 MFI. Against it:
- B5 — lower, 37500 MFI
- B6 — lower, 40700 MFI
- B7 — higher, 45000 MFI
- B9 — lower, 17000 MFI

Molecular target: T4, Human CD33 full length (human, UniProt P20138 18-364)
T4 construct: also called huCD33
Test: flow cytometry on HEK293F cells expressing human CD33
Protocol: as §2, §3

T4 sequence (P20138 18-364 limits assumed): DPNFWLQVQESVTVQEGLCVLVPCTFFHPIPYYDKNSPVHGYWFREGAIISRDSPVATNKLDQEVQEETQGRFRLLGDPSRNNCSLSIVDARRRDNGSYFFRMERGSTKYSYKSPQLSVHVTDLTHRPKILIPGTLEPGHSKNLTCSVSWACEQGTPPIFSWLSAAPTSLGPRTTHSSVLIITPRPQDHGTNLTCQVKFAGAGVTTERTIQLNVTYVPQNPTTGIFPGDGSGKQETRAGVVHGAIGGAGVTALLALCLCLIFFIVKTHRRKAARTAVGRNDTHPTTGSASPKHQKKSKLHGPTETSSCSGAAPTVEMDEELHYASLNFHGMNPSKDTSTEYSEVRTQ

Point of comparison: B9, “MFI at 0 nM (background)” value 114 MFI. Against it:
- B5 — lower, 112 MFI
- B6 — higher, 128 MFI
- B7 — higher, 185 MFI
- B8 — higher, 167 MFI

Point of comparison: B9, “MFI at 0.6 nM” value 13500 MFI. Against it:
- B5 — higher, 138000 MFI
- B6 — higher, 205000 MFI
- B7 — higher, 153000 MFI
- B8 — higher, 193000 MFI

Point of comparison: B8, “MFI at 6 nM” value 404000 MFI. Against it:
- B5 — lower, 363000 MFI
- B6 — higher, 409000 MFI
- B7 — lower, 315000 MFI
- B9 — lower, 100000 MFI

Point of comparison: B6, “MFI at 60 nM” value 519000 MFI. Against it:
- B5 — lower, 390000 MFI
- B7 — lower, 304000 MFI
- B8 — lower, 448000 MFI
- B9 — lower, 238000 MFI

Molecular target: T5, Cyno CD33 ECD-HSA (cynomolgus monkey)
T5 construct: Cyno CD33 ECD fused to HSA and a six-histidine tag; also called C33W1
Test: ProteOn SPR, mAb captured on anti-human Fc, antigen as analyte
Protocol: (§4) The panel of mAbs was then further characterized for full affinity analysis as well as epitope binning. The binding of anti-CD33 mAbs to recombinant human CD33 ECD-HSA (C33W2) and cyno CD33 ECD-HSA (C33W1) was measured by ProteOn SPR (Bio-Rad). […] Different mAbs were captured on the anti-human Fc IgG surface at 0.25 or 0.5 μg/ml (160-300 RU) in vertical ligand orientation, with the 6th ligand channel as no ligand surface control. Human and cyno CD33-HSA proteins at 0.3 μM concentration in 3-fold dilution series of 5 concentrations flew in as analyte to bind to captured mAbs in the horizontal orientation. A buffer sample was also injected in the 6th channel to monitor the dissociation of captured mAb and baseline stability. […] The raw biding data were processed by double referencing after subtracting the response data from: 1) the inter-spot to correct for the non-specific interactions between the Ag and the empty chip surface; 2) the buffer channel to correct for baseline drifting due to the dissociation of captured mAb surface over time. The processed data at all antigen concentrations for each mAb were globally fit to a 1:1 simple Langmuir binding model to extract estimates of the kinetic (kₒₙ, koff) and affinity (Kd) constants.

Point of comparison: B9, Kd 1 nM. Against it:
- B5 — 43-fold lower, 0.0234 nM
- B6 — 8.3-fold lower, 0.12 nM
- B7 — 2.3-fold lower, 0.44 nM
- B8 — within 1.5-fold, 0.852 nM

Point of comparison: B5, koff 8.93e-05 s⁻¹. Against it:
- B6 — 3.4-fold higher, 0.000308 s⁻¹
- B7 — 2.6-fold higher, 0.000233 s⁻¹
- B8 — 4.5-fold higher, 0.000403 s⁻¹
- B9 — 13-fold higher, 0.00115 s⁻¹

Point of comparison: B9, kon 1.15e+06 M⁻¹ s⁻¹. Against it:
- B5 — 3.3-fold higher, 3.81e+06 M⁻¹ s⁻¹
- B6 — 2.2-fold higher, 2.56e+06 M⁻¹ s⁻¹
- B7 — 2.2-fold lower, 529000 M⁻¹ s⁻¹
- B8 — 2.4-fold lower, 473000 M⁻¹ s⁻¹

Molecular target: T6, Human CD33 ECD-HSA (human)
T6 construct: CD33 ECD fused at the C-terminus to monomeric HSA (C58S) and a six-histidine tag; also called C33W2; huCD33 ECD-HSA
Test: as above
Protocol: as §4

Point of comparison: B8, Kd 0.655 nM. Against it:
- B5 — 6.9-fold higher, 4.53 nM
- B6 — within 1.5-fold, 0.969 nM
- B7 — 34-fold higher, 22.1 nM
- B9 — 17-fold lower, 0.0378 nM

Point of comparison: B5, koff 0.000989 s⁻¹. Against it:
- B6 — 1.5-fold lower, 0.00064 s⁻¹
- B7 — 9.9-fold higher, 0.0098 s⁻¹
- B8 — 2.4-fold lower, 0.000411 s⁻¹
- B9 — 24-fold lower, 4.14e-05 s⁻¹

Point of comparison: B6, kon 660000 M⁻¹ s⁻¹. Against it:
- B5 — 3-fold lower, 218000 M⁻¹ s⁻¹
- B7 — within 1.5-fold, 444000 M⁻¹ s⁻¹
- B8 — within 1.5-fold, 627000 M⁻¹ s⁻¹
- B9 — 1.7-fold higher, 1.1e+06 M⁻¹ s⁻¹

Molecular target: T7, human CD3 on human T cells (human, UniProt P07766 23-207)
T7 construct: Native TCR-CD3 complex on cells; also called primary human T cells; human pan T cells
Test: flow cytometry, Jurkat CD3+ (E6-1)

T7 sequence (P07766 23-207 limits assumed): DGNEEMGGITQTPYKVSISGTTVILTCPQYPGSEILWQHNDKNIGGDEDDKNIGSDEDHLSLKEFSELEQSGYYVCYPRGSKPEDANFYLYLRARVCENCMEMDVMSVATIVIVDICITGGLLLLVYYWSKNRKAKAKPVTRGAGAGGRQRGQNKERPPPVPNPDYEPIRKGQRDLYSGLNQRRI

Point of comparison: B1, “% positive” value 72%. Against it:
- B2 — lower, 3%
- B3 — lower, 53%
- B4 — lower, 53%

Point of comparison: B1, geomean 199000 geometric mean fluorescence. Against it:
- B2 — lower, 7500 geometric mean fluorescence
- B3 — lower, 148000 geometric mean fluorescence
- B4 — lower, 148000 geometric mean fluorescence
